Key:
[1] = biological target: Human metapneumovirus (HMPV) phosphoprotein (P), strain CAN97-83 (Human metapneumovirus (strain CAN97-83)) (UniProt Q8B9Q8)
[2] = biological target: Human metapneumovirus (HMPV) phosphoprotein (P), strain CAN97-83 (Human metapneumovirus (strain CAN97-83)) (UniProt Q8B9Q8); remark: listed apart in the source

Molecule “HMPV N^0-P construct: full-length N (1 to 394) fused to a P peptide (1 to 40) (from UniProt Q6WBA1 1-394; Q8B9Q8 1-40)” has a turbidity assay, absorbance at 395 nm against time (5-min intervals), N^0-P (40 uM) with anion exchange-purified P (40 uM), against N^0-P alone (peak above 0.6) (absorbance at 395 nm) [1] of 0.3.

B1: HMPV wild-type nucleoprotein N, RNA-bound rings (N-RNA), strain CAN97-83 (natural protein)
chain: MSLQGIHLSDLSYKHAILKESQYTIKRDVGTTTAVTPSSLQQEITLLCGEILYAKHADYKYAAEIGIQYISTALGSERVQQILRNSGSEVQVVLTRTYSLGKVKNNKGEDLQMLDIHGVEKSWVEEIDKEARKTMATLLKESSGNIPQNQRPSAPDTPIILLCVGALIFTKLASTIEVGLETTVRRANRVLSDALKRYPRMDIPKIARSFYDLFEQKVYYRSLFIEYGKALGSSSTGSKAESLFVNIFMQAYGAGQTMLRWGVIARSSNNIMLGHVSVQAELKQVTEVYDLVREMGPESGLLHLRQSPKAGLLSLANCPNFASVVLGNASGLGIIGMYRGRVPNTELFSAAESYAKSLKESNKINFSSLGLTDEEKEAAEHFLNVSDDSQNDYE
Molecule B1 has a turbidity assay, absorbance at 395 nm against time (5-min intervals), N-RNA (40 uM) with heparin-purified P (40 uM), against N-RNA alone (absorbance at 395 nm) [2] of 0.2.

— publication PMC9239117
